These results are taken from patent US20150344570A1 (published 2015).

The target of assay [1] is T1, FcγRIIa H (human FcγRIIa, allotype H131, extracellular domain with C-terminal His tag) (human, UniProt P12318 34-217).
T1 construct: extracellular domain; Soluble extracellular domain expressed in FreeStyle293 cells; used as analyte in Biacore; also called FcgRIIa H; FcγRIIa type H; not shown: His tag attached to the C terminus
T1 sequence (looked up): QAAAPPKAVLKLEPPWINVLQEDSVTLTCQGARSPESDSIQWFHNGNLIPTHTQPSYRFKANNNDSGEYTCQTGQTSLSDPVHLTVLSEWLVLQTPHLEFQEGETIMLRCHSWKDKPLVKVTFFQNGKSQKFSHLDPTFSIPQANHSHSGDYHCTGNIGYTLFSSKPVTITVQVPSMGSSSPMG
Nature of the assay: SPR (Biacore T100), antibody captured on antigen-peptide chip, FcγRIIa H as analyte; relative binding. The protocol:
Analysis of interaction between objective antibody and the FcγR was carried out using Biacore T100 (GE Healthcare). HBS-EP+ (GE Healthcare) was used as the running buffer, and the measurement temperature was set to 25° C. Chips produced by immobilizing the antigen peptide by the amine coupling method to a Series S Sencor Chip CM5 (GE Healthcare), or alternatively, chips produced by allowing preliminarily biotinylated antigen peptides to interact with and immobilize onto a Series S Sensor Chip SA (certified) (GE Healthcare) were used. Antibodies of interest were captured onto an antigen peptide-immobilized chip, and allowed to interact to each FcγR diluted with running buffer. To regenerate and repeatedly use the chip, the antibodies captured on the chip were washed off by reacting 10 mM glycine-HCl, pH 1.5.
Background: SPR reads the build-up and loss of mass on a sensor chip optically.

For assay [2], the target named is T2, FcgRIIb (FcγRIIb) extracellular domain with C-terminal His tag (human, UniProt P31994 43-217).
T2 construct: extracellular domain; not shown: His tag attached to the C terminus
T2 sequence (looked up): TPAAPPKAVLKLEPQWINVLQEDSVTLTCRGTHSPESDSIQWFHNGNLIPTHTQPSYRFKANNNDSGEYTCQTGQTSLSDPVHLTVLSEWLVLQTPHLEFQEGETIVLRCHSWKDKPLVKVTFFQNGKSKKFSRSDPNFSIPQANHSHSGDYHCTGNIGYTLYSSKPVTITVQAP
The experiment in a line: SPR (Biacore); KD of H240-Kn061/H240-Hl071/L73-k0 divided by KD of the variant. The protocol:
(§1) The antibodies were assessed for the binding to each FcgR. […] The resultant value was defined as relative KD, and used as an assessment indicator.
(§2) Analysis of interaction between objective antibody and the FcγR was carried out using Biacore T100 (GE Healthcare), Biacore T200, Biacore A100, and Biacore 4000. HBS-EP+ (GE Healthcare) was used as the running buffer, and the measurement temperature was set to 25° C. Chips produced by immobilizing the antigen peptide by the amine coupling method to a Series S sensor Chip CM5 (GE Healthcare), chips produced by allowing preliminarily biotinylated antigen peptides to interact with and immobilize onto a Series S Sensor Chip SA (certified) (GE Healthcare), chips produced by immobilizing Protein L (ACTIGEN, BioVision) to Series S Sencor Chip CM5 (GE Healthcare), or chips produced by immobilizing Protein A/G (Thermo Scientific) to Series S Sencor Chip CM5 (GE Healthcare) were used. Antibodies of interest were captured onto these chips, and allowed to interact to each FcγR diluted with running buffer.

The target in assay [3] is T3, FcgRIIIa F (FcγRIIIa type F) extracellular domain with C-terminal His tag (human, UniProt P08637 17-208).
T3 construct: extracellular domain; also called FcγRIIIa F; 3aF; not shown: His tag attached to the C terminus
T3 sequence (P08637 17-208): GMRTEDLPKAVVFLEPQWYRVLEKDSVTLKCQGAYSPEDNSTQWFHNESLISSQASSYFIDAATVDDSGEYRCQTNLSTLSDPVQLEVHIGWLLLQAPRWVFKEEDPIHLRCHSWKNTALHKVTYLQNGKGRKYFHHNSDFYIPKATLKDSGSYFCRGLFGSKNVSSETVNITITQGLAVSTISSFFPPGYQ
The description is as above. The protocol: as §1, §2

For assay [4], the target named is T4, FcgRIIIa V (FcγRIIIa type V) extracellular domain with C-terminal His tag (human, UniProt P08637 17-208).
T4 construct: extracellular domain; also called FcγRIIIa V; not shown: His tag attached to the C terminus
T4 sequence (P08637 17-208 F176V limits assumed): as the sequence (P08637 17-208) above, with F160V counted along it
Described as above. The method, then: as §1, §2

B1: GpH7-A5/GpH7-B3 variant T335_09D/GpL16-k0 (heterodimerized antibody, He Ab) (antibody, human IgG1, kappa)
heavy 1: not shown
heavy 2: not shown
light: DIVMTQSPLSLPVTPGEPASISCQASESLVHSNRNTYLHWYLQKPGQSPQLLIYKVSNRFSGVPDRFSGSGSGTDFTLKISRVEAEDVGVYYCSQNTHVPPTFGQGTKVEIERTVAAPSVFIFPPSDEQLKSGTASVVCLLNNFYPREAKVQWKVDNALQSGNSQESVTEQDSKDSTYSLSSTLTLSKADYEKHKVYACEVTHQGLSSPVTKSFNRGEC
notes: Anti-glypican-3 IgG1 heterodimer; the alteration stands in one H chain only; EU numbering; also called T335_09D He Ab; T335D in one H chain
For B1, the He/Con_2aH in assay [1] was 107 relative binding activity (control heterodimerized antibody GpH7-A5/GpH7-B3/GpL16-k0 = 100).

B2: GpH7-A5/GpH7-B3 variant Y300_07I/GpL16-k0 (heterodimerized antibody, He Ab) (antibody, human IgG1, kappa)
heavy 1: not shown
heavy 2: not shown
light: DIVMTQSPLSLPVTPGEPASISCQASESLVHSNRNTYLHWYLQKPGQSPQLLIYKVSNRFSGVPDRFSGSGSGTDFTLKISRVEAEDVGVYYCSQNTHVPPTFGQGTKVEIERTVAAPSVFIFPPSDEQLKSGTASVVCLLNNFYPREAKVQWKVDNALQSGNSQESVTEQDSKDSTYSLSSTLTLSKADYEKHKVYACEVTHQGLSSPVTKSFNRGEC
notes: Anti-glypican-3 IgG1 heterodimer; the alteration stands in one H chain only; EU numbering; also called Y300_07I He Ab; Y300I in one H chain
Consider B2, for which the He/Con_2aH in assay [1] is 108 relative binding activity (control heterodimerized antibody GpH7-A5/GpH7-B3/GpL16-k0 = 100).

B3: GpH7-A5/GpH7-B3 variant T335_05P/GpL16-k0 (heterodimerized antibody, He Ab) (antibody, human IgG1, kappa)
heavy 1: not shown
heavy 2: not shown
light: DIVMTQSPLSLPVTPGEPASISCQASESLVHSNRNTYLHWYLQKPGQSPQLLIYKVSNRFSGVPDRFSGSGSGTDFTLKISRVEAEDVGVYYCSQNTHVPPTFGQGTKVEIERTVAAPSVFIFPPSDEQLKSGTASVVCLLNNFYPREAKVQWKVDNALQSGNSQESVTEQDSKDSTYSLSSTLTLSKADYEKHKVYACEVTHQGLSSPVTKSFNRGEC
notes: Anti-glypican-3 IgG1 heterodimer; the alteration stands in one H chain only; EU numbering; also called T335_05P He Ab; T335P in one H chain
For the molecule B3, the He/Con_2aH in assay [1] is 108 relative binding activity (control heterodimerized antibody GpH7-A5/GpH7-B3/GpL16-k0 = 100).

B4: H240-Kn061/H240-Hl071/L73-k0 variant with W236Y in H240-Kn061 (antibody, human IgG1, kappa)
heavy 1: QDQLVQSGAEVKKPGASVKVSCKASGFNIKDTYIQWVRQAPGQGLEWMGRIDPLRKQTKYREKFEGRVTITADTSTNTAYMELSSLRSEDTAVYYCVRSGREFDYWGQGTLVTVSSASTKGPSVFPLAPSSKSTSGGTAALGCLVKDYFPEPVTVSWNSGALTSGVHTFPAVLQSSGLYSLSSVVTVPSSSLGTQTYICNVNHKPSNTKVDKKVEPKSCDKTHTCPPCPAPEYYYGPSVFLFPPKPKDTLMISRTPEVTCVVVDVSDEDPEVKFNWYVDGVEVHNAKTKPREEQYNATYRVVSVLTVLHQDWLNGKEYKCKVSNKALPAPIEKTISKAKGQPREPQVCTLPPSRDELTKNQVSLWCLVKGFYPSDIAVEWESNGQPENNYKTTPPVLDSDGSFFLYSKLTVDKSRWQQGNVFSCSVMHEALHNHYTQKSLSLSP
heavy 2: QDQLVQSGAEVKKPGASVKVSCKASGFNIKDTYIQWVRQAPGQGLEWMGRIDPLRKQTKYREKFEGRVTITADTSTNTAYMELSSLRSEDTAVYYCVRSGREFDYWGQGTLVTVSSASTKGPSVFPLAPSSKSTSGGTAALGCLVKDYFPEPVTVSWNSGALTSGVHTFPAVLQSSGLYSLSSVVTVPSSSLGTQTYICNVNHKPSNTKVDKKVEPKSCDKTHTCPPCPAPELLGGPSVFLFPPKPKDTLMISRTPEVTCVVVDVSHEDPEVKFNWYVDGVEVHNAKTKPREEQYNSTYRVVSVLTVLHQDWLNGKEYKCKVSNDALPMPIEETISKAKGQPREPQVYTLPPSRCELTKNQVSLSCAVKGFYPSDIAVEWESNGQPENNYKTTPPVLDSDGSFFLVSKLTVDKSRWQQGNVFSCSVMHEALHNHYTQKSLSLSP
light: DIQMTQSPSSLSASVGDRVTITCRASQDIHKYIAWYQQKPGQAPRLLIQYTSTLQPGVPSRFSGSGSGTDYTFTISSLQPEDIATYYCLQYEQLRTFGGGTKVEIKRTVAAPSVFIFPPSDEQLKSGTASVVCLLNNFYPREAKVQWKVDNALQSGNSQESVTEQDSKDSTYSLSSTLTLSKADYEKHKVYACEVTHQGLSSPVTKSFNRGEC
notes: anti-epiregulin heterodimerized IgG1; also called H240-Kn061 W236Y
Consider B4, for which the figures for the “relative KD” value in assay [2], in assay [3] and in assay [4] were 0.8 ratio, 0.8 ratio and 1.2 ratio, respectively.

B5: H240-Kn061/H240-Hl071/L73-k0 variant with Y234A in H240-Kn061 (antibody, human IgG1, kappa)
heavy 1: QDQLVQSGAEVKKPGASVKVSCKASGFNIKDTYIQWVRQAPGQGLEWMGRIDPLRKQTKYREKFEGRVTITADTSTNTAYMELSSLRSEDTAVYYCVRSGREFDYWGQGTLVTVSSASTKGPSVFPLAPSSKSTSGGTAALGCLVKDYFPEPVTVSWNSGALTSGVHTFPAVLQSSGLYSLSSVVTVPSSSLGTQTYICNVNHKPSNTKVDKKVEPKSCDKTHTCPPCPAPEAYWGPSVFLFPPKPKDTLMISRTPEVTCVVVDVSDEDPEVKFNWYVDGVEVHNAKTKPREEQYNATYRVVSVLTVLHQDWLNGKEYKCKVSNKALPAPIEKTISKAKGQPREPQVCTLPPSRDELTKNQVSLWCLVKGFYPSDIAVEWESNGQPENNYKTTPPVLDSDGSFFLYSKLTVDKSRWQQGNVFSCSVMHEALHNHYTQKSLSLSP
heavy 2: QDQLVQSGAEVKKPGASVKVSCKASGFNIKDTYIQWVRQAPGQGLEWMGRIDPLRKQTKYREKFEGRVTITADTSTNTAYMELSSLRSEDTAVYYCVRSGREFDYWGQGTLVTVSSASTKGPSVFPLAPSSKSTSGGTAALGCLVKDYFPEPVTVSWNSGALTSGVHTFPAVLQSSGLYSLSSVVTVPSSSLGTQTYICNVNHKPSNTKVDKKVEPKSCDKTHTCPPCPAPELLGGPSVFLFPPKPKDTLMISRTPEVTCVVVDVSHEDPEVKFNWYVDGVEVHNAKTKPREEQYNSTYRVVSVLTVLHQDWLNGKEYKCKVSNDALPMPIEETISKAKGQPREPQVYTLPPSRCELTKNQVSLSCAVKGFYPSDIAVEWESNGQPENNYKTTPPVLDSDGSFFLVSKLTVDKSRWQQGNVFSCSVMHEALHNHYTQKSLSLSP
light: DIQMTQSPSSLSASVGDRVTITCRASQDIHKYIAWYQQKPGQAPRLLIQYTSTLQPGVPSRFSGSGSGTDYTFTISSLQPEDIATYYCLQYEQLRTFGGGTKVEIKRTVAAPSVFIFPPSDEQLKSGTASVVCLLNNFYPREAKVQWKVDNALQSGNSQESVTEQDSKDSTYSLSSTLTLSKADYEKHKVYACEVTHQGLSSPVTKSFNRGEC
notes: anti-epiregulin heterodimerized IgG1; also called H240-Kn061 Y234A
With B5, the entries for the “relative KD” value in assay [2], in assay [3] and in assay [4] were 1.2 ratio, 0.8 ratio and 0.9 ratio, respectively.
